# According to the supplement of paper PMC7125110:
# ± gives the standard error. Variants at the floor of the assay were thinned out.
# B1: glmS ribozyme (parent)
# chain: AUAAAAGCGCCAGAACUACAGAAAUGUAGUUGACGAGGAGGAGGUUUAUCGAAUUUUCGGCGGAUGCCUCCAAA
# Tests used:
# Conditions in all cases: with glucosamine-6-phosphate
# [1] = variants of: B1; assay: self-cleavage kobs at 640 uM GlcN6P; higher = faster cleavage; RNA array
# Outline: (§1)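 Sequenced MiSeq chips were the platform: E. coli RNA polymerase transcribed barcoded ribozyme variants on them in situ, and a hybridised Cy3 probe tracked these at 37 °C. After glucosamine-6-phosphate (40 μM to 10 mM) in HEPES/KCl/Mg(OAc)2 buffer was flowed in, tiles were imaged over ~14 h. Signals normalised to baseline and to non-cleaving reference variants were reduced to per-tile medians and fit to one- or two-exponential decays to obtain kobs. kcat and KM were derived through weighted Michaelis–Menten fits across concentrations.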
# [2] = variants of: B1; assay: self-cleavage kobs at 2500 uM GlcN6P; higher = faster cleavage; RNA array
# Outline: as §1
# [3] = variants of: B1; assay: self-cleavage kobs at 10000 uM GlcN6P; higher = faster cleavage; RNA array
# Outline: as §1
Variant,self-cleavage kobs at 640 uM GlcN6P [1],self-cleavage kobs at 2500 uM GlcN6P [2],self-cleavage kobs at 10000 uM GlcN6P [3]
G13U C50G C67G,0.000305 ± 0.00014 s⁻¹,7.52e-05 ± 1.5e-05 s⁻¹,
A12G U54A,0.000125 ± 2.3e-05 s⁻¹,0.000221 ± 4.5e-05 s⁻¹,0.000878 ± 0.00013 s⁻¹
A14G A15G C34G U69A,0.000303 ± 0.00014 s⁻¹,,
A12C U47C G60U,< 1e-05 s⁻¹,,
A12U U47G A52U C61U,< 1e-05 s⁻¹,,
A12G G43A U46G U69G,< 1e-05 s⁻¹,< 1e-05 s⁻¹,
A12U A33G A48C,< 1e-05 s⁻¹,< 1e-05 s⁻¹,
A12C G41A A48C,< 1e-05 s⁻¹,,
A12U A15G U47G,0.00207 ± 0.00042 s⁻¹,,
G13C G32A U45A A52U G60A G62C A64G C68U,< 1e-05 s⁻¹,< 1e-05 s⁻¹,
A12G U45G A52U C61G,< 1e-05 s⁻¹,,
G13C A14C C71U,4.16e-05 ± 1.1e-05 s⁻¹,0.000105 ± 1.7e-05 s⁻¹,
A14C A42G G43A U69C C70U,< 1e-05 s⁻¹,,
G13A G32C G43C C68G,7.7e-05 ± 2.2e-05 s⁻¹,0.000154 ± 5e-05 s⁻¹,
G13A C34A C67U C70G,< 1e-05 s⁻¹,< 1e-05 s⁻¹,
A12U G38C A39C,< 1e-05 s⁻¹,,< 1e-05 s⁻¹
G13U G37U G40A U69G,< 1e-05 s⁻¹,< 1e-05 s⁻¹,< 1e-05 s⁻¹
A14C C16U G44U U69G,< 1e-05 s⁻¹,,
A12C U30A G35A,< 1e-05 s⁻¹,< 1e-05 s⁻¹,< 1e-05 s⁻¹
A12U A52U G60A,< 1e-05 s⁻¹,,
A12G G38C C68G,< 1e-05 s⁻¹,< 1e-05 s⁻¹,
G13U G40A G43C U49C C68G,< 1e-05 s⁻¹,,

Variant,self-cleavage kobs at 640 uM GlcN6P [1],self-cleavage kobs at 2500 uM GlcN6P [2],self-cleavage kobs at 10000 uM GlcN6P [3]
G13U G37C U56C C67A C71U,< 1e-05 s⁻¹,,
G13U G29U G32A,0.000242 ± 7e-05 s⁻¹,,
A12G C16G C50G C68G,0.000104 ± 4.5e-05 s⁻¹,,
G13A A14G G29C C50G,0.000185 ± 6.9e-05 s⁻¹,,
A12U G13U G32U A64G,< 1e-05 s⁻¹,,
A12G U55A,0.000161 ± 2.2e-05 s⁻¹,0.000248 ± 4e-05 s⁻¹,0.00094 ± 8.5e-05 s⁻¹
G13U A64G U65G,8.37e-05 ± 3e-05 s⁻¹,5.07e-05 ± 1.7e-05 s⁻¹,
A12G A39U A42C,8.45e-05 ± 2.4e-05 s⁻¹,0.000119 ± 2.7e-05 s⁻¹,
G13U U31C G41A,< 1e-05 s⁻¹,,
G13C A48U A53U C61G,< 1e-05 s⁻¹,,
G13A U30G G41U U46C G63C,< 1e-05 s⁻¹,< 1e-05 s⁻¹,
G13C A42U U57A G63C,< 1e-05 s⁻¹,< 1e-05 s⁻¹,
A12G A36C A39C C71G,< 1e-05 s⁻¹,< 1e-05 s⁻¹,
A14C A36U G38A U69A,7.64e-05 ± 1.8e-05 s⁻¹,,
A12G U30A G44A,< 1e-05 s⁻¹,,
A12U C67G C71A,< 1e-05 s⁻¹,,
G13U C16G G29A A39G,0.000103 ± 3.7e-05 s⁻¹,0.000286 ± 7.5e-05 s⁻¹,
A12G G37A A48G G63C,< 1e-05 s⁻¹,,
A14C U46G G66A,0.000298 ± 5.1e-05 s⁻¹,0.000166 ± 3.6e-05 s⁻¹,
A12G C34U,< 1e-05 s⁻¹,,< 1e-05 s⁻¹
A14C U69C C71U,4.76e-05 ± 8.5e-06 s⁻¹,0.000131 ± 1.4e-05 s⁻¹,
G13U U30C C61A,< 1e-05 s⁻¹,,

Variant,self-cleavage kobs at 640 uM GlcN6P [1],self-cleavage kobs at 2500 uM GlcN6P [2],self-cleavage kobs at 10000 uM GlcN6P [3]
A14C A36G U49C,< 1e-05 s⁻¹,< 1e-05 s⁻¹,
A12G G41A G59U,< 1e-05 s⁻¹,< 1e-05 s⁻¹,
A12U G29A U31C,0.000169 ± 4.1e-05 s⁻¹,0.00041 ± 0.00015 s⁻¹,0.000943 ± 0.00018 s⁻¹
A12C G29C A42C,< 1e-05 s⁻¹,,
A14C G35U C61A,< 1e-05 s⁻¹,,
A12C C58U C70U,6.75e-05 ± 2.5e-05 s⁻¹,7.09e-05 ± 3.2e-05 s⁻¹,
G13A U54C C70U,9.94e-05 ± 2.2e-05 s⁻¹,0.000291 ± 9.6e-05 s⁻¹,
G13A C16G A36C G41U A52U,< 1e-05 s⁻¹,,
A12U G35U,< 1e-05 s⁻¹,,
A12C G32A U54G,2.31e-05 ± 1.1e-05 s⁻¹,3.03e-05 ± 9.9e-06 s⁻¹,0.00014 ± 2.3e-05 s⁻¹
A12U A15G G41A C61A,< 1e-05 s⁻¹,,
A12U C50U G59U,< 1e-05 s⁻¹,< 1e-05 s⁻¹,< 1e-05 s⁻¹
A14C C34A U46G,< 1e-05 s⁻¹,< 1e-05 s⁻¹,
G13U U56C A64G,< 1e-05 s⁻¹,,
A12U C34G G51U U57A U65G,< 1e-05 s⁻¹,,
G13U C16U G29A,0.000601 ± 0.00017 s⁻¹,,
G13A A14C A42G C70U,4.53e-05 ± 1.8e-05 s⁻¹,9.61e-05 ± 1.4e-05 s⁻¹,
G13C G37U G43C,< 1e-05 s⁻¹,< 1e-05 s⁻¹,
A12U C58U C61G G62C A64G U65A G66U C67G U69C C70U,7.34e-05 ± 2.4e-05 s⁻¹,7.58e-05 ± 1.9e-05 s⁻¹,
G13U C16A A39G G40U C68G,< 1e-05 s⁻¹,< 1e-05 s⁻¹,
G13U U31C G62A,< 1e-05 s⁻¹,,
G13A A52C C58G U69G,4.44e-05 ± 2e-05 s⁻¹,,

Variant,self-cleavage kobs at 640 uM GlcN6P [1],self-cleavage kobs at 2500 uM GlcN6P [2],self-cleavage kobs at 10000 uM GlcN6P [3]
A12G A48U G63U,< 1e-05 s⁻¹,,
A12C G35A C70U,< 1e-05 s⁻¹,< 1e-05 s⁻¹,
A14C A36C G51U C61A G63U C67U,8.43e-05 ± 3.9e-05 s⁻¹,5.16e-05 ± 1.9e-05 s⁻¹,
G13U A15U G32U G62C C68A,7.42e-05 ± 3.5e-05 s⁻¹,,
A12G U57A G60U,< 1e-05 s⁻¹,< 1e-05 s⁻¹,< 1e-05 s⁻¹
A12U A15U C68G,8.06e-05 ± 2.7e-05 s⁻¹,,
A12U U30A G38U,< 1e-05 s⁻¹,,
A12U A48G U49G,6.79e-05 ± 3.2e-05 s⁻¹,,
G13C A39C C61A C70U,< 1e-05 s⁻¹,,
A12G A15C G40U,< 1e-05 s⁻¹,,
G13U A15U C70U,3.4e-05 ± 9.4e-06 s⁻¹,7.46e-05 ± 2.2e-05 s⁻¹,5.88e-05 ± 1.3e-05 s⁻¹
G13U G29C G60A U69C C70U,< 1e-05 s⁻¹,,
A14C G44A A64U,< 1e-05 s⁻¹,,
A12G A39G C50A,< 1e-05 s⁻¹,,
A12U C19U U69A,0.000392 ± 0.0001 s⁻¹,0.000303 ± 6e-05 s⁻¹,
A14C G44C U55C,< 1e-05 s⁻¹,,
A12C G44U,9.03e-05 ± 1.7e-05 s⁻¹,8.38e-05 ± 2.6e-05 s⁻¹,0.000382 ± 5.4e-05 s⁻¹
A12C G32C U57C C58U,< 1e-05 s⁻¹,< 1e-05 s⁻¹,
G13A G29C G66U,< 1e-05 s⁻¹,,
A12C U31C A39G,0.000185 ± 3.9e-05 s⁻¹,0.00135 ± 0.00023 s⁻¹,0.00124 ± 0.00028 s⁻¹
A12C G38C U49C C50A,< 1e-05 s⁻¹,< 1e-05 s⁻¹,
A12G G32U G44C G60A C70G,< 1e-05 s⁻¹,,

Variant,self-cleavage kobs at 640 uM GlcN6P [1],self-cleavage kobs at 2500 uM GlcN6P [2],self-cleavage kobs at 10000 uM GlcN6P [3]
A12G A39C A42C,< 1e-05 s⁻¹,,
A14C G43U U56A C68U,9.14e-05 ± 2.6e-05 s⁻¹,0.000133 ± 3.7e-05 s⁻¹,
A14C U56G C68A,9.34e-05 ± 3.4e-05 s⁻¹,8.68e-05 ± 2.2e-05 s⁻¹,
G13C G29A G40C,< 1e-05 s⁻¹,,
G13U G40U G63C,< 1e-05 s⁻¹,< 1e-05 s⁻¹,
G13U A64U C70G,< 1e-05 s⁻¹,,
A14C A15C A39U G40U U49C,< 1e-05 s⁻¹,,
A12G A39C G41U U47A A48U C61U A64U,< 1e-05 s⁻¹,< 1e-05 s⁻¹,
G13U U31G A48G A52U,< 1e-05 s⁻¹,,
A12U G35C C70U,< 1e-05 s⁻¹,< 1e-05 s⁻¹,
G13A A14C U30G,4.76e-05 ± 1.8e-05 s⁻¹,,
G13A U45A U49A,< 1e-05 s⁻¹,< 1e-05 s⁻¹,
A12C G26A G51U A53G C68G,0.000191 ± 5.2e-05 s⁻¹,0.000139 ± 4.6e-05 s⁻¹,
A12U U65C C70U,0.000322 ± 8.6e-05 s⁻¹,,
A12G G29U G37C,< 1e-05 s⁻¹,< 1e-05 s⁻¹,
A12U A48C,0.000142 ± 2.1e-05 s⁻¹,0.000341 ± 5.1e-05 s⁻¹,
G13A A42C G44U,< 1e-05 s⁻¹,,
G13U U30A A53G,5.33e-05 ± 1.9e-05 s⁻¹,,4.23e-05 ± 1.5e-05 s⁻¹
A12U A15C C71A,0.000661 ± 0.00015 s⁻¹,0.0015 ± 0.00053 s⁻¹,
G13C G43U G59U,< 1e-05 s⁻¹,< 1e-05 s⁻¹,
G13U A14U G35C U46A G51U U65A,< 1e-05 s⁻¹,,
A12G U45C C50U,< 1e-05 s⁻¹,< 1e-05 s⁻¹,

Variant,self-cleavage kobs at 640 uM GlcN6P [1],self-cleavage kobs at 2500 uM GlcN6P [2],self-cleavage kobs at 10000 uM GlcN6P [3]
A12G U47G C50A C68G,0.000111 ± 4.4e-05 s⁻¹,,
A14C C61U C68G,0.0001 ± 3.3e-05 s⁻¹,,
G13C A33G G40U U49G G63A,< 1e-05 s⁻¹,,
G13C A14G A42G,0.000198 ± 6.9e-05 s⁻¹,0.000379 ± 9.2e-05 s⁻¹,
G13U A15G G51C,< 1e-05 s⁻¹,< 1e-05 s⁻¹,
A12C G13U A36U,< 1e-05 s⁻¹,< 1e-05 s⁻¹,
G13U C16U A33C C68U,< 1e-05 s⁻¹,,
G13C A14G U56C,6.74e-05 ± 1.6e-05 s⁻¹,0.000185 ± 4.6e-05 s⁻¹,
A12G A36U,< 1e-05 s⁻¹,,
G13A G59A G62A,< 1e-05 s⁻¹,,
A14C G41A C70U,0.00173 ± 0.00026 s⁻¹,0.00489 ± 0.0012 s⁻¹,0.0111 ± 0.0021 s⁻¹
G13A G44C U54G,< 1e-05 s⁻¹,,
A12G G29A A36G U49C U57G C70A,< 1e-05 s⁻¹,,
G13C G37A G62A,< 1e-05 s⁻¹,< 1e-05 s⁻¹,< 1e-05 s⁻¹
A12U U46C A52G A53G,0.000183 ± 4.4e-05 s⁻¹,0.00036 ± 8.9e-05 s⁻¹,
G13A G44C,< 1e-05 s⁻¹,,
G13C A15C C61U A64U C67A,< 1e-05 s⁻¹,,
A12U C67G C70U,0.000172 ± 3.8e-05 s⁻¹,0.000623 ± 0.00017 s⁻¹,
A12U A48C C58A,< 1e-05 s⁻¹,< 1e-05 s⁻¹,
G13U A14G G29C U49A,< 1e-05 s⁻¹,,
A12U A53C C67U,0.00253 ± 0.0006 s⁻¹,,
A14C G59C C71A,< 1e-05 s⁻¹,,
